Consider three molecules from patent US7939292B2, “Modified heparinase III and methods of sequencing therewith” (Massachusetts Institute of Technology, priority 2000, dated 2011).

A short description of this series: Heparinase III kinetic assay of r-heparinase III and histidine mutants. Format: biochemical. The settings on record: for kcat / Km: heparan sulfate; for Km: calculated assuming a molecular weight of 15 kDa. The method, then:
The activity of heparinase III was measured using a UV 232 nm assay similar to those reported for heparinase I and heparinase II (Godavarti, R., Cooney, C. L., Langer, R., and Sasisekharan, R. (1996) Biochemistry 35, 6846-52; Shriver, Z., Hu, Y., and Sasisekharan, R. (1998) J. Biol. Chem. 273, 10160-67; and Lohse, D. and Linhardt, R. J. (1992) J. Biol. Chem. 267, 781-87). Briefly, the increase in absorbance at 232 nm as a function of time was monitored under saturating substrate conditions. All assays were performed with heparan sulfate at a concentration of 2 mg/ml in 50 mM sodium phosphate, pH 7.6. The temperature for enzymatic activity measurements was kept constant at 35° C.
In parallel to the mapping studies and to confirm the results of the chemical modification experiments, each of the thirteen histidine residues present in heparinase III was mutated to alanine. The recombinant heparinase III mutant proteins were expressed, purified, and assessed for enzymatic activity towards heparan sulfate (Table 2).

B1: H225A: recombinant heparinase III with histidine 225 mutated to alanine (protein)
chain: MTTKIFKRIIVFAVIALSSGNILAQSSSITRKDFDHINLEYSGLEKVNKAVAAGNYDDAAKALLAYYREKSKAREPDFSNAEKPADIRQPIDKVTREMADKALVHQFQPHKGYGYFDYGKDINWQMWPVKDNEVRWQLHRVKWWQAMALVYHATGDEKYAREWVYQYSDWARKNPLGLSQDNDKFVWRPLEVSDRVQSLPPTFSLFVNSPAFTPAFLMEFLNSYAQQADYLSTHYAEQGNHRLFEAQRNLFAGVSFPEFKDSPRWRQTGISVLNTEIKKQVYADGMQFELSPIYHVAAIDIFLKAYGSAKRVNLEKEFPQSYVQTVENMIMALISISLPDYNTPMFGDSWITDKNFRMAQFASWARVFPANQAIKYFATDGKQGKAPNFLSKALSNAGFYTFRSGWDKNATVMVLKASPPGEFHAQPDNGTFELFIKGRNFTPDAGVFVYSGDEAIMKLRNWYRQTRIHSTLTLDNQNMVITKARQNKWETGNNLDVLTYTNPSYPNLDHQRSVLFINKKYFLVIDRAIGEATGNLGVHWQLKEDSNPVFDKTKNRVYTTYRDGNNLMIQSLNADRTSLNEEEGKVSYVYNKELKRPAFVFEKPKKNAGTQNFVSIVYPYDGQKAPEISIRENKGNDFEKGKLNLTLTINGKQQLVLVP
As to B1, the “changes in recombinant protein yield, enzyme activity, or kinetic parameters compared with r-heparinase III” value (“changes in recombinant protein yield” below) is listed as “no significant changes”; the kcat (in general, the maximal rate divided by the concentration of active sites) amounted to 22 s⁻¹; the Km – broadly, the substrate concentration at which the rate is half of its maximum – is 80 µM.

B2: H241A: recombinant heparinase III with histidine 241 mutated to alanine (protein)
chain: MTTKIFKRIIVFAVIALSSGNILAQSSSITRKDFDHINLEYSGLEKVNKAVAAGNYDDAAKALLAYYREKSKAREPDFSNAEKPADIRQPIDKVTREMADKALVHQFQPHKGYGYFDYGKDINWQMWPVKDNEVRWQLHRVKWWQAMALVYHATGDEKYAREWVYQYSDWARKNPLGLSQDNDKFVWRPLEVSDRVQSLPPTFSLFVNSPAFTPAFLMEFLNSYHQQADYLSTHYAEQGNARLFEAQRNLFAGVSFPEFKDSPRWRQTGISVLNTEIKKQVYADGMQFELSPIYHVAAIDIFLKAYGSAKRVNLEKEFPQSYVQTVENMIMALISISLPDYNTPMFGDSWITDKNFRMAQFASWARVFPANQAIKYFATDGKQGKAPNFLSKALSNAGFYTFRSGWDKNATVMVLKASPPGEFHAQPDNGTFELFIKGRNFTPDAGVFVYSGDEAIMKLRNWYRQTRIHSTLTLDNQNMVITKARQNKWETGNNLDVLTYTNPSYPNLDHQRSVLFINKKYFLVIDRAIGEATGNLGVHWQLKEDSNPVFDKTKNRVYTTYRDGNNLMIQSLNADRTSLNEEEGKVSYVYNKELKRPAFVFEKPKKNAGTQNFVSIVYPYDGQKAPEISIRENKGNDFEKGKLNLTLTINGKQQLVLVP
For the molecule B2, the “changes in recombinant protein yield” value was “no significant changes”; the kcat amounted to 5 s⁻¹; the Km was 16 µM.

B3: H234A: recombinant heparinase III with histidine 234 mutated to alanine (protein)
chain: MTTKIFKRIIVFAVIALSSGNILAQSSSITRKDFDHINLEYSGLEKVNKAVAAGNYDDAAKALLAYYREKSKAREPDFSNAEKPADIRQPIDKVTREMADKALVHQFQPHKGYGYFDYGKDINWQMWPVKDNEVRWQLHRVKWWQAMALVYHATGDEKYAREWVYQYSDWARKNPLGLSQDNDKFVWRPLEVSDRVQSLPPTFSLFVNSPAFTPAFLMEFLNSYHQQADYLSTAYAEQGNHRLFEAQRNLFAGVSFPEFKDSPRWRQTGISVLNTEIKKQVYADGMQFELSPIYHVAAIDIFLKAYGSAKRVNLEKEFPQSYVQTVENMIMALISISLPDYNTPMFGDSWITDKNFRMAQFASWARVFPANQAIKYFATDGKQGKAPNFLSKALSNAGFYTFRSGWDKNATVMVLKASPPGEFHAQPDNGTFELFIKGRNFTPDAGVFVYSGDEAIMKLRNWYRQTRIHSTLTLDNQNMVITKARQNKWETGNNLDVLTYTNPSYPNLDHQRSVLFINKKYFLVIDRAIGEATGNLGVHWQLKEDSNPVFDKTKNRVYTTYRDGNNLMIQSLNADRTSLNEEEGKVSYVYNKELKRPAFVFEKPKKNAGTQNFVSIVYPYDGQKAPEISIRENKGNDFEKGKLNLTLTINGKQQLVLVP
As to B3, the “changes in recombinant protein yield” value is listed as “no significant changes”; the kcat was determined as 23 s⁻¹; the Km is 75 µM.
